Data from publication PMC11772548, “A Complex Interplay Between Melatonin and RORβ: RORβ is Unlikely a Putative Receptor for Melatonin as Revealed by Biophysical Assays” (Molecular Neurobiology, 2024).

Target: ligand-binding domain (LBD) of human RORβ (human, UniProt Q92753-2 250-450, Paper numbering follows the 459-aa isoform (RORβ1; Thr210, Cys262, LBD ending at the AF-2 end, 450), so +11 gives the 470-aa entry: printed 250-450 = 261-461. The paper's modelled LBD is 210-450 (= 22)
Assay: ITC; 2 mM SRC-1 peptide titrated into 50-100 µM LBD of RORβ; 20 mM Tris-HCl pH 8.6, 2 mM CHAPS, 100 mM NaCl, 5 mM DTT; Malvern MicroCal PEAQ-ITC
Conditions: both partners purified

Chain of ligand-binding domain (LBD) of human RORβ (Q92753 250-450): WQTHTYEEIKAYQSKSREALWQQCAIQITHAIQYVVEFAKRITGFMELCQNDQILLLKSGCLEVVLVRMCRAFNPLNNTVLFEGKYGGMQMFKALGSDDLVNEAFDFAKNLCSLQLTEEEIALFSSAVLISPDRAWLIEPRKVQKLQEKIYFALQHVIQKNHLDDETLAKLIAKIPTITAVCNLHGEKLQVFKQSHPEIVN

B1: SRC-1 co-activator peptide (peptide)
peptide: RHKILHRLLQEGSPS
notes: also called SRC-1 peptide; source: synthetic peptide (GenScript)
For B1, the Kd was 19.8 µM and the dH was -1.1 kcal/mol.
